Data on 1 substance can be found in patent publication US20210363241A1.

Assay [1] has as its target Human CD226 on the cell surface of stably transfected HEK 293 cells (human) (UniProt Q15762). The assay can be described thus: flow cytometry on HEK 293 cells expressing human CD226, control IgG (denominator of the ratio). Background: Flow cytometry measures light scatter and fluorescence of single cells or particles in a stream.
Assay [2] addresses Cynomolgus monkey CD226 on the cell surface of stably transfected HEK 293 cells (cynomolgus monkey). The assay can be described thus: flow cytometry on HEK 293 cells expressing cynomolgus CD226, control IgG (denominator of the ratio).

Chain of Cynomolgus monkey CD226 on the cell surface of stably transfected HEK 293 cells (cynomolgus monkey) (chain, as listed by the source): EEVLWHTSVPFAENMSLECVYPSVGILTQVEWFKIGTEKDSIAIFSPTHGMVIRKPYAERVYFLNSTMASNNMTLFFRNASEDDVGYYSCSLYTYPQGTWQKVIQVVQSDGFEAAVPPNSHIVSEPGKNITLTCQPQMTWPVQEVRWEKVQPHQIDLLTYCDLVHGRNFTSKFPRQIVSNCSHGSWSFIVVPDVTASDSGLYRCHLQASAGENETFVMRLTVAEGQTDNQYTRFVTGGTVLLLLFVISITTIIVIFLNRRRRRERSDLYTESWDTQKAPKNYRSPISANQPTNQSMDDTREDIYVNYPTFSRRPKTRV
Chain of Human CD226 on the cell surface of stably transfected HEK 293 cells (human) (Q15762 19-336 limits assumed): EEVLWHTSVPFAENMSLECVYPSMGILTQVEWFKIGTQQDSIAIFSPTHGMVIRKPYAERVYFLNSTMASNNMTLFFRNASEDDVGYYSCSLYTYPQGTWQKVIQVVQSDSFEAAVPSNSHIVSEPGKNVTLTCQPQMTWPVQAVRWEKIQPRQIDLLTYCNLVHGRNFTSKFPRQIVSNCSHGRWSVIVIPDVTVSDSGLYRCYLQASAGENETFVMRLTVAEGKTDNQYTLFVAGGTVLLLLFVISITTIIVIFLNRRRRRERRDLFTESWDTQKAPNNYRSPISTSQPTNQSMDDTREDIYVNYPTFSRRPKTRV

Take Control human IgG1 (antibody): the MFI in assay [1] worked out at 8.98; in assay [2], 3.94.
